# B1: recombinant mouse Raptin protein with a His-tag (ligand)
# chain: AEELHYPQGEHRADYDREALLGVQEDVDEYVKLGHEEQQRRLQSIIKKIDSDSDGFLTENELSQWIQMSFKHYAMQEAKQQFVEYDKNSDGAVTWDEYNIQMYDRVIDFDENTALDDTEEGSFRQLHLKDKKRFEKANQDSGPGLSLEEFIAFEHPEEVDYMTEFVIQEALEEHDKNGDGFVSLEEFLGDYRRDPTANEDPEWILVEKDRFVNDYDKDNDGR
# Target: glutamate metabotropic receptor 3 (GRM3), endogenous (mouse (endogenous in GT1-7 neurons and …, UniProt Q9QYS2 23-879))
# Test: cell-based or functional assay
# Sequence of glutamate metabotropic receptor 3 (GRM3), endogenous (mouse (Q9QYS2 23-879): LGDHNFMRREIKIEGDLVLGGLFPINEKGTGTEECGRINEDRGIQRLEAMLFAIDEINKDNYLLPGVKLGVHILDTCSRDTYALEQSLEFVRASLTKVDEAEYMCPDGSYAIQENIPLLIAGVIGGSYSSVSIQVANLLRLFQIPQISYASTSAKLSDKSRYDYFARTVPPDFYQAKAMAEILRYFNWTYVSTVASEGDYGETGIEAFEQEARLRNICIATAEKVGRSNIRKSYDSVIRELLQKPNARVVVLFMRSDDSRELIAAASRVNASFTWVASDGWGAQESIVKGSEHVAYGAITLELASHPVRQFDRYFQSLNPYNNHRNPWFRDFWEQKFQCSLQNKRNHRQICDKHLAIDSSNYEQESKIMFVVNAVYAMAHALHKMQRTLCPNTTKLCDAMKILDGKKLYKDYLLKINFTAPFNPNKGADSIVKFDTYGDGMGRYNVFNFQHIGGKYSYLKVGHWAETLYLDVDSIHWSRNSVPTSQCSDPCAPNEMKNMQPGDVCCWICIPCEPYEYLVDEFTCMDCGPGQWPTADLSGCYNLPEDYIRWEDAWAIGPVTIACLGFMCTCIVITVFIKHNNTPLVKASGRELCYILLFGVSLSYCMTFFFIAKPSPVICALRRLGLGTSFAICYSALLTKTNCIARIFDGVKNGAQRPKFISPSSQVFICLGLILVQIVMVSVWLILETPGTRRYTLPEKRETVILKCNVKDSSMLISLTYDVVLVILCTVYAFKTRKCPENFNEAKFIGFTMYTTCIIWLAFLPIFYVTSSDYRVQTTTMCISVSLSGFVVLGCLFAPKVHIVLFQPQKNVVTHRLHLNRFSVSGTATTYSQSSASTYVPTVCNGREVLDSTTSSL
binder,measurement,value
B1,p-AKT accumulation in GT1-7 cells expressing GRM3 (EC50 of Raptin),0.31 ng/mL
